Data: patent US20220227830A1, “QD DOSING OF GIP RECEPTOR AGONIST PEPTIDE COMPOUNDS AND USES THEREOF” (Takeda Pharmaceutical Company Limited, priority 2020, published 2022)
Starred links: 1 amine or outer side, 2 acyl side, 3 side chain; linkers in the order of their positions; H or OH if unused. Non-standard residues stand in square brackets, D forms with d. Groups on a side chain read outwards from the residue. No end group written: not given here. *: point of attachment. C16 diacid = O=C(O)CCCCCCCCCCCCCCC(=O)*; C15 diacid = O=C(O)CCCCCCCCCCCCCC(=O)*; γGlu = O=C(O)[C@H](CCC(=O)[*:2])N[*:1]; NMeY = CN[C@@H](Cc1ccc(O)cc1)C(=O)O; AEEA = NCCOCCOCC(=O)O; Aib = CC(C)(N)C(=O)O

B1: Compound 21 (peptide)
peptide: [NMeY][Aib]EGTFISDYSI[Aib]LDR[Aib]AQ[Aib]NFVNWLLAQK([AEEA-AEEA-γGlu-γGlu-C15 diacid])PSSGAPPPS-NH2
modifications: N-terminus assumed
SMILES: CC[C@H](C)[C@H](NC(=O)[C@H](Cc1ccccc1)NC(=O)[C@@H](NC(=O)CNC(=O)[C@H](CCC(=O)O)NC(=O)C(C)(C)NC(=O)[C@H](Cc1ccc(O)cc1)NC)[C@@H](C)O)C(=O)N[C@@H](CO)C(=O)N[C@@H](CC(=O)O)C(=O)N[C@@H](Cc1ccc(O)cc1)C(=O)N[C@@H](CO)C(=O)N[C@H](C(=O)NC(C)(C)C(=O)N[C@@H](CC(C)C)C(=O)N[C@@H](CC(=O)O)C(=O)N[C@@H](CCCNC(=N)N)C(=O)NC(C)(C)C(=O)N[C@@H](C)C(=O)N[C@@H](CCC(N)=O)C(=O)NC(C)(C)C(=O)N[C@@H](CC(N)=O)C(=O)N[C@@H](Cc1ccccc1)C(=O)N[C@H](C(=O)N[C@@H](CC(N)=O)C(=O)N[C@@H](Cc1c[nH]c2ccccc12)C(=O)N[C@@H](CC(C)C)C(=O)N[C@@H](CC(C)C)C(=O)N[C@@H](C)C(=O)N[C@@H](CCC(N)=O)C(=O)N[C@@H](CCCCNC(=O)COCCOCCNC(=O)COCCOCCNC(=O)CC[C@H](NC(=O)CC[C@H](NC(=O)CCCCCCCCCCCCCC(=O)O)C(=O)O)C(=O)O)C(=O)N1CCC[C@H]1C(=O)N[C@@H](CO)C(=O)N[C@@H](CO)C(=O)NCC(=O)N[C@@H](C)C(=O)N1CCC[C@H]1C(=O)N1CCC[C@H]1C(=O)N1CCC[C@H]1C(=O)N[C@@H](CO)C(N)=O)C(C)C)[C@@H](C)CC
B2: Compound 18 (peptide)
peptide: [NMeY][Aib]EGTFISDYSIAK([γGlu-γGlu-γGlu-C15 diacid])DR[Aib]AQ[Aib]NFVNWLLAQSPSSGAPPPS-NH2
modifications: N-terminus assumed
SMILES: CC[C@H](C)[C@H](NC(=O)[C@H](CO)NC(=O)[C@H](Cc1ccc(O)cc1)NC(=O)[C@H](CC(=O)O)NC(=O)[C@H](CO)NC(=O)[C@@H](NC(=O)[C@H](Cc1ccccc1)NC(=O)[C@@H](NC(=O)CNC(=O)[C@H](CCC(=O)O)NC(=O)C(C)(C)NC(=O)[C@H](Cc1ccc(O)cc1)NC)[C@@H](C)O)[C@@H](C)CC)C(=O)N[C@@H](C)C(=O)N[C@@H](CCCCNC(=O)CC[C@H](NC(=O)CC[C@H](NC(=O)CC[C@H](NC(=O)CCCCCCCCCCCCCC(=O)O)C(=O)O)C(=O)O)C(=O)O)C(=O)N[C@@H](CC(=O)O)C(=O)N[C@@H](CCCNC(=N)N)C(=O)NC(C)(C)C(=O)N[C@@H](C)C(=O)N[C@@H](CCC(N)=O)C(=O)NC(C)(C)C(=O)N[C@@H](CC(N)=O)C(=O)N[C@@H](Cc1ccccc1)C(=O)N[C@H](C(=O)N[C@@H](CC(N)=O)C(=O)N[C@@H](Cc1c[nH]c2ccccc12)C(=O)N[C@@H](CC(C)C)C(=O)N[C@@H](CC(C)C)C(=O)N[C@@H](C)C(=O)N[C@@H](CCC(N)=O)C(=O)N[C@@H](CO)C(=O)N1CCC[C@H]1C(=O)N[C@@H](CO)C(=O)N[C@@H](CO)C(=O)NCC(=O)N[C@@H](C)C(=O)N1CCC[C@H]1C(=O)N1CCC[C@H]1C(=O)N1CCC[C@H]1C(=O)N[C@@H](CO)C(N)=O)C(C)C
B3: Compound 17 (peptide)
peptide: [NMeY][Aib]EGTFISDYSIALDR[Aib]K([AEEA-AEEA-γGlu-γGlu-C15 diacid])Q[Aib]NFVNWLLAQSPSSGAPPPS-NH2
modifications: N-terminus assumed
SMILES: CC[C@H](C)[C@H](NC(=O)[C@H](CO)NC(=O)[C@H](Cc1ccc(O)cc1)NC(=O)[C@H](CC(=O)O)NC(=O)[C@H](CO)NC(=O)[C@@H](NC(=O)[C@H](Cc1ccccc1)NC(=O)[C@@H](NC(=O)CNC(=O)[C@H](CCC(=O)O)NC(=O)C(C)(C)NC(=O)[C@H](Cc1ccc(O)cc1)NC)[C@@H](C)O)[C@@H](C)CC)C(=O)N[C@@H](C)C(=O)N[C@@H](CC(C)C)C(=O)N[C@@H](CC(=O)O)C(=O)N[C@@H](CCCNC(=N)N)C(=O)NC(C)(C)C(=O)N[C@@H](CCCCNC(=O)COCCOCCNC(=O)COCCOCCNC(=O)CC[C@H](NC(=O)CC[C@H](NC(=O)CCCCCCCCCCCCCC(=O)O)C(=O)O)C(=O)O)C(=O)N[C@@H](CCC(N)=O)C(=O)NC(C)(C)C(=O)N[C@@H](CC(N)=O)C(=O)N[C@@H](Cc1ccccc1)C(=O)N[C@H](C(=O)N[C@@H](CC(N)=O)C(=O)N[C@@H](Cc1c[nH]c2ccccc12)C(=O)N[C@@H](CC(C)C)C(=O)N[C@@H](CC(C)C)C(=O)N[C@@H](C)C(=O)N[C@@H](CCC(N)=O)C(=O)N[C@@H](CO)C(=O)N1CCC[C@H]1C(=O)N[C@@H](CO)C(=O)N[C@@H](CO)C(=O)NCC(=O)N[C@@H](C)C(=O)N1CCC[C@H]1C(=O)N1CCC[C@H]1C(=O)N1CCC[C@H]1C(=O)N[C@@H](CO)C(N)=O)C(C)C
B4: Compound 19 (peptide)
peptide: [NMeY][Aib]EGTFISDYSI[Aib]K([AEEA-AEEA-γGlu-γGlu-C15 diacid])DR[Aib]AQ[Aib]NFVNWLLAQRPSSGAPPPS-NH2
modifications: N-terminus assumed
SMILES: CC[C@H](C)[C@H](NC(=O)[C@H](Cc1ccccc1)NC(=O)[C@@H](NC(=O)CNC(=O)[C@H](CCC(=O)O)NC(=O)C(C)(C)NC(=O)[C@H](Cc1ccc(O)cc1)NC)[C@@H](C)O)C(=O)N[C@@H](CO)C(=O)N[C@@H](CC(=O)O)C(=O)N[C@@H](Cc1ccc(O)cc1)C(=O)N[C@@H](CO)C(=O)N[C@H](C(=O)NC(C)(C)C(=O)N[C@@H](CCCCNC(=O)COCCOCCNC(=O)COCCOCCNC(=O)CC[C@H](NC(=O)CC[C@H](NC(=O)CCCCCCCCCCCCCC(=O)O)C(=O)O)C(=O)O)C(=O)N[C@@H](CC(=O)O)C(=O)N[C@@H](CCCNC(=N)N)C(=O)NC(C)(C)C(=O)N[C@@H](C)C(=O)N[C@@H](CCC(N)=O)C(=O)NC(C)(C)C(=O)N[C@@H](CC(N)=O)C(=O)N[C@@H](Cc1ccccc1)C(=O)N[C@H](C(=O)N[C@@H](CC(N)=O)C(=O)N[C@@H](Cc1c[nH]c2ccccc12)C(=O)N[C@@H](CC(C)C)C(=O)N[C@@H](CC(C)C)C(=O)N[C@@H](C)C(=O)N[C@@H](CCC(N)=O)C(=O)N[C@@H](CCCNC(=N)N)C(=O)N1CCC[C@H]1C(=O)N[C@@H](CO)C(=O)N[C@@H](CO)C(=O)NCC(=O)N[C@@H](C)C(=O)N1CCC[C@H]1C(=O)N1CCC[C@H]1C(=O)N1CCC[C@H]1C(=O)N[C@@H](CO)C(N)=O)C(C)C)[C@@H](C)CC

What was measured:
dog plasma proteins = test: plasma protein binding, ultracentrifugation of spiked plasma, LC-MS/MS
human plasma proteins = test: as above

| Binder | Dog PPB (Fu,plasma), fraction unbound (fraction unbound) (dog plasma proteins) | Human PPB (Fu,plasma), fraction unbound (fraction unbound) (human plasma proteins) |
| --- | --- | --- |
| [NMeY][Aib]EGTFISDYSIALDR[Aib]K([AEEA-AEEA-γGlu-γGlu-C16 diacid])Q[Aib]NFVNWLLAQSPSSGAPPPS-NH2 [Compound 119] | 0.0105 | 0.0185 |
| [NMeY][Aib]EGTFISDYSIAK([AEEA-AEEA-γGlu-γGlu-C15 diacid])DR[Aib]AQ[Aib]NFVNWLLAQS [Compound 16] | 0.0151 | 0.0441 |
| B1 | 0.037 | 0.0414 |
| B2 | 0.0517 | 0.0588 |
| B3 | 0.0675 | 0.064 |
| B4 | 0.0361 | 0.0321 |
